According to paper PMC7884425 (2021):

T1: human HPF1 F280A (human, UniProt Q9NWY4 1-346, F280A)
T1 sequence: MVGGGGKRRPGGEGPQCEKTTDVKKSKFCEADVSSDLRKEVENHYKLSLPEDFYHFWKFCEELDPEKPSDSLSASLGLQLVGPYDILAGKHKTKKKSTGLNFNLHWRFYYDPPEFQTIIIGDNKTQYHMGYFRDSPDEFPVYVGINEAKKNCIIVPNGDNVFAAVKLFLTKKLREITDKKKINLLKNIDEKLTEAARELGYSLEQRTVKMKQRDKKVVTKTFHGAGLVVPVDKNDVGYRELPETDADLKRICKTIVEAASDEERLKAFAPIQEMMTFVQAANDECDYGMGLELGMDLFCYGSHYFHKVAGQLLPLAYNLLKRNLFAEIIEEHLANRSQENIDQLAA

T2: human HPF1 K307S (human, UniProt Q9NWY4 1-346, K307S)
T2 sequence: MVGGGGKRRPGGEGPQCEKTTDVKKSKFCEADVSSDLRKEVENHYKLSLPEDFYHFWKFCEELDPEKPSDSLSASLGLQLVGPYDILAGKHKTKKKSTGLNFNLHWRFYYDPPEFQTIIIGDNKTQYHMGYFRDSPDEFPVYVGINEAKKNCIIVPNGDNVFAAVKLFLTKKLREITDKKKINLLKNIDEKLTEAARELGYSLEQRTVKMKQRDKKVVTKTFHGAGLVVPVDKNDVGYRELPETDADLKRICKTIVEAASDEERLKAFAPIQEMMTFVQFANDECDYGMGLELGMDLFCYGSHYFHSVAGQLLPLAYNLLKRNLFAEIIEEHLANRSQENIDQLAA

T3: human HPF1 R239A (human, UniProt Q9NWY4 1-346, R239A)
T3 sequence: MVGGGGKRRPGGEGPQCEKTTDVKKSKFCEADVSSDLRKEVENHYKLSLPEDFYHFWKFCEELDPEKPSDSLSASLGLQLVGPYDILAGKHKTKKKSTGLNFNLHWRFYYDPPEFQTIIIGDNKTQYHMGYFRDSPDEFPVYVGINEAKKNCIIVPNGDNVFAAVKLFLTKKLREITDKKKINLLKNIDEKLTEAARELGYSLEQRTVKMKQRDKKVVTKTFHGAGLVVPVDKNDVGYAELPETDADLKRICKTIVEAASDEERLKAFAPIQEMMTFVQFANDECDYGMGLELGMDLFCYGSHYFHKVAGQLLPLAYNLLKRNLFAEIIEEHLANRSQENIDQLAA

T4: human HPF1 E138K (human, UniProt Q9NWY4 1-346, E138K)
T4 sequence: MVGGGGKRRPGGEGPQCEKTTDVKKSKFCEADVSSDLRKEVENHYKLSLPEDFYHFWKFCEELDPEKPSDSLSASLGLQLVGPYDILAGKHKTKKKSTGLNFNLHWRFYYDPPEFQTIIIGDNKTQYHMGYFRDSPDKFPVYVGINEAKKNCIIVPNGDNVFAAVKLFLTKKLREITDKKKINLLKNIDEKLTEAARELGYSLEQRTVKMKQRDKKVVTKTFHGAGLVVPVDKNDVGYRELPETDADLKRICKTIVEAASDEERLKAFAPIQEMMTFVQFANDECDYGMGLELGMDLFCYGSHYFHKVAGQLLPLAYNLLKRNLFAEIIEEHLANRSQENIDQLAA

T5: human HPF1 F139S (human, UniProt Q9NWY4 1-346, F139S)
T5 sequence: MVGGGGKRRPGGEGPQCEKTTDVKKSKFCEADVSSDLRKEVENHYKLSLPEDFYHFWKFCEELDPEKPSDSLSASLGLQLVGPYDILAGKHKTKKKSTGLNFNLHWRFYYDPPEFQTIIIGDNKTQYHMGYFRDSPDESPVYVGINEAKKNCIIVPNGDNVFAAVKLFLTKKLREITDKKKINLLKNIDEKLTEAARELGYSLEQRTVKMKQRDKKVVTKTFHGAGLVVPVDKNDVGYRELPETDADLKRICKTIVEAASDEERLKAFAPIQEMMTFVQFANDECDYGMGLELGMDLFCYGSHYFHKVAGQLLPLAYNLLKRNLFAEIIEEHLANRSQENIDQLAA

T6: human HPF1 K216E (human, UniProt Q9NWY4 1-346, K216E)
T6 sequence: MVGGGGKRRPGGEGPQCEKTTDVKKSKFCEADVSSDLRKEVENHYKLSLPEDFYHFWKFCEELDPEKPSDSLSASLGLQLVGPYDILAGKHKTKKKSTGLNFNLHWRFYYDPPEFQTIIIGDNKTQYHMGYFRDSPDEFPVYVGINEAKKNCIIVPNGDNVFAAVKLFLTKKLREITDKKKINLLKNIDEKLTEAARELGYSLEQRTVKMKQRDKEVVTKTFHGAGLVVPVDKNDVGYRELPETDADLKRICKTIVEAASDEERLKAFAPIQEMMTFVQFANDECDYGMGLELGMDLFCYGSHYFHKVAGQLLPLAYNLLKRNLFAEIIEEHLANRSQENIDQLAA

B1: human PARP1-CAT ΔHD (661-678-GSGSGSGG-787-1014) (domain or fragment)
chain: TKSKLPKPVQDLIKMIFDGSGSGSGGKDPIDVNYEKLKTDIKVVDRDSEEAEIIRKYVKNTHATTHNAYDLEVIDIFKIEREGECQRYKPFKQLHNRRLLWHGSRTTNFAGILSQGLRIAPPEAPVTGYMFGKGIYFADMVSKSANYCHTSQGDPIGLILLGEVALGNMYELKHASHISKLPKGKHSVKGLGKTTPDPSANISLDGVDVPLGTGISSGVNDTSLLYNEYIVYDIAQVNLKYLLKLKFNFKTSLW

Assays:
PARP1 D756A = PARP1 D756A (human, UniProt P09874 1-1014, D756A); assay: ITC; in the presence of DNA
[1] = target: B1; assay: ITC; replicate 2
human HPF1 F280A [2] = target: T1, human HPF1 F280A; assay: ITC; replicate 2
human HPF1 K307S [3] = target: T2, human HPF1 K307S; assay: ITC; replicate 2
human HPF1 R239A [4] = target: T3, human HPF1 R239A; assay: ITC; replicate 2
human HPF1 E138K [5] = target: T4, human HPF1 E138K; assay: ITC; replicate 1
human HPF1 F139S [6] = target: T5, human HPF1 F139S; assay: ITC; replicate 1
human HPF1 F280A [7] = target: T1, human HPF1 F280A; assay: ITC; replicate 1
human HPF1 K307S [8] = target: T2, human HPF1 K307S; assay: ITC; replicate 1
human HPF1 R239A [9] = target: T3, human HPF1 R239A; assay: ITC; replicate 1
human HPF1 E138K [10] = target: T4, human HPF1 E138K; assay: ITC; replicate 2
human HPF1 F139S [11] = target: T5, human HPF1 F139S; assay: ITC; replicate 2
human HPF1 K216E = target: T6, human HPF1 K216E; assay: ITC; replicate 2

Row | Ka (PARP1 D756A) [M⁻¹] | Ka [1] [M⁻¹] | Ka (human HPF1 F280A [2]) [M⁻¹] | Ka (human HPF1 K307S [3]) [M⁻¹] | Ka (human HPF1 R239A [4]) [M⁻¹] | Ka (human HPF1 E138K [5]) [M⁻¹] | Ka (human HPF1 F139S [6]) [M⁻¹] | Ka (human HPF1 F280A [7]) [M⁻¹] | Ka (human HPF1 K307S [8]) [M⁻¹] | Ka (human HPF1 R239A [9]) [M⁻¹] | Ka (human HPF1 E138K [10]) [M⁻¹] | Ka (human HPF1 F139S [11]) [M⁻¹] | Ka (human HPF1 K216E) [M⁻¹] | Binder
1 | 333000 | 642000 | – | – | – | – | – | – | – | – | – | – | – | human HPF1 (histone PARylation factor 1), wild-type (natural protein) MVGGGGKRRPGGEGPQCEKTTDVKKSKFCEADVSSDLRKEVENHYKLSLPEDFYHFWKFCEELDPEKPSDSLSASLGLQLVGPYDILAGKHKTKKKSTGLNFNLHWRFYYDPPEFQTIIIGDNKTQYHMGYFRDSPDEFPVYVGINEAKKNCIIVPNGDNVFAAVKLFLTKKLREITDKKKINLLKNIDEKLTEAARELGYSLEQRTVKMKQRDKKVVTKTFHGAGLVVPVDKNDVGYRELPETDADLKRICKTIVEAASDEERLKAFAPIQEMMTFVQFANDECDYGMGLELGMDLFCYGSHYFHKVAGQLLPLAYNLLKRNLFAEIIEEHLANRSQENIDQLAA
2 | – | – | 212000 | 123000 | 402000 | 617000 | 400000 | 147000 | 95700 | 432000 | 583000 | 440000 | 725000 | B1
